This note sets out measurements from paper PMC4840321.

The nature of data set [1]: western blot, SGTA+Vpu-induced rise of 23-kDa species. The following applies: glycan lost; control: wild type. For orientation: Immunoblotting shows a protein as a band on a membrane.
Data set [2] is described as follows: western blot, 23-kDa tetherin level ± SGTA and Vpu. The following applies: glycan changed form; control: untreated.
Data set [3] can be described thus: cytosol/membrane fractionation ± SGTA and Vpu, anti-HA blot. The following applies: glycan lost; control: wild type 23-kDa species.

B1: tetherin/BST-2/CD317/HM1.24: N65A (protein)
parent chain: MASTSYDYCRVPMEDGDKRCKLLLGIGILVLLIIVILGVPLIIFTIKANSEACRDGLRAVMECRNVTHLLQQELTEAQKGFQDVEAQAATCNHTVMALMASLDAEKAQGQKKVEELEGEITTLNHKLQDASAEVERLRRENQVLSVRIADKKYYPSSQDSSSAAAPQLLIVLLGLSALLQ
In the case of B1, the expression_or_secretion entry in data set [1] is recorded as “no change”.

B2: tetherin/BST-2/CD317/HM1.24: N92A (protein)
parent chain: MASTSYDYCRVPMEDGDKRCKLLLGIGILVLLIIVILGVPLIIFTIKANSEACRDGLRAVMECRNVTHLLQQELTEAQKGFQDVEAQAATCNHTVMALMASLDAEKAQGQKKVEELEGEITTLNHKLQDASAEVERLRRENQVLSVRIADKKYYPSSQDSSSAAAPQLLIVLLGLSALLQ
On to B2, for which the expression_or_secretion entry in data set [1] is reported as “no change”.

B3: tetherin/BST-2/CD317/HM1.24: kifunensine (protein)
parent chain: MASTSYDYCRVPMEDGDKRCKLLLGIGILVLLIIVILGVPLIIFTIKANSEACRDGLRAVMECRNVTHLLQQELTEAQKGFQDVEAQAATCNHTVMALMASLDAEKAQGQKKVEELEGEITTLNHKLQDASAEVERLRRENQVLSVRIADKKYYPSSQDSSSAAAPQLLIVLLGLSALLQ
Consider B3, for which the expression_or_secretion entry in data set [2] is “no change”.

B4: tetherin/BST-2/CD317/HM1.24: NN-AA (protein)
parent chain: MASTSYDYCRVPMEDGDKRCKLLLGIGILVLLIIVILGVPLIIFTIKANSEACRDGLRAVMECRNVTHLLQQELTEAQKGFQDVEAQAATCNHTVMALMASLDAEKAQGQKKVEELEGEITTLNHKLQDASAEVERLRRENQVLSVRIADKKYYPSSQDSSSAAAPQLLIVLLGLSALLQ
B4: the expression_or_secretion result in data set [1] is recorded as “abolishes”. In addition, in data set [3], the localisation_or_trafficking entry is recorded as “no change”.
